According to the supplement of paper PMC12042874:
± gives the uncertainty stated by the source.

Assay: amyloid nucleation score (Sup35N fusion, yeast selection) (log enrichment); library NNK2; higher = more nucleation; inactive = no reads after selection
Procedure, shortened: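 Nucleation score: DiMSum log enrichment of output over input reads, centred on the mode score of non-aggregating sequences. Only sequences with at least 100 input reads were kept. Reads came from Illumina sequencing of plasmid inserts before and after 7 days of growth at 30°C without adenine and uracil, in psi-negative yeast expressing Sup35N fused to peptides of 20 random codons after 24 hours of induction with 100 μM copper sulfate.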

In order of falling amyloid nucleation score:
1. LGIDAYCPWCVYECFSSRGE  9.586 ± 0.057
2. NWLQGVYCCGKVIGSLTSTD  8.775 ± 0.043
3. LFLTACER  6.721 ± 0.043
4. FMTNGFFVSLWFTCGDSVLS  5.68 ± 0.078
5. RDWRVFIYFMGNVVLDY  5.59 ± 0.08
6. IEDYACMLNREMG  5.36 ± 0.049
7. RNAKMMTSSLVYNWFVFAER  5.353 ± 0.045
8. FSLCANCNIMMPRSFLSYT  5.24 ± 0.078
9. YNFRSSLRNGYKEVRGVQYG  5.221 ± 0.043
10. LLIRYSGFFCAPALTIPCGS  5.12 ± 0.078
11. RLRFPSPFRTVNWSFIRFAR  5.03 ± 0.069
12. GFSRRGELHVSVYHIRDTFG  4.88 ± 0.081
13. DSCFRVLHRTGFVFMSWLII  4.82 ± 0.082
14. HHNPGVWMKGSPCMWKIVQI  4.76 ± 0.076
15. PDLRKDYAWLLLFLVRVRGD  4.43 ± 0.085
16. KTTLVHFFVAREYLWRRMWG  4.38 ± 0.084
17. HHNTCKGM  4.35 ± 0.062
18. SGVKLYRLRRLCLFSRGKFA  4.09 ± 0.12
19. LQVVKKSNA  3.61 ± 0.061
20. NMMCISSHGSTTSGFLRSSL  3.52 ± 0.062
21. QWSAILFSMRWFVKKSEFSC  3.48 ± 0.052
22. RCTRSR  3.4 ± 0.12
23. GVWIFKYCRNNWFGFLIISA  3.33 ± 0.1
24. VDLSLTHYCARSNYLGGPSF  3.17 ± 0.076
25. NTWTCAQPRVTLLAQLYELN  3.1 ± 0.12
26. YNIWL  2.49 ± 0.12
27. CGNNCTQYRHDWWGGMKLRD  2.38 ± 0.085
28. LEKKLFVKVYRHSICIGVAE  1.9 ± 0.43
29. DNTELFKNDFKFKLYLSNKI  1.72 ± 0.24
30. LQSSKVWDFMLGLGVSGRVE  1.55 ± 0.14
31. RHADF  1.39 ± 0.27
32. VLLRVRRCYSVPTFRVWSAT  1.39 ± 0.18
33. WCKQGVGCDLGAMVELSKGG  1.22 ± 0.28
34. NWLGCEMPIGGSSSVSAMYL  1.17 ± 0.21
35. GCSWEITDVHGGRLKLAMDP  1.12 ± 0.32
36. LSVCGSWDRRRFGGYDLWCT  0.903 ± 0.48
37. LRGLCRVHWRSERAQSMRPG  0.892 ± 0.45
38. LCRKRYVRSHTTSWQTGGAF  0.888 ± 0.48
39. MRKWTVSGIRGGRN  0.879 ± 0.23
40. STHSGLSMT  0.877 ± 0.27
41. CLLVSEQRSRRHRRGALCIG  0.872 ± 0.32
42. ASHRVNGEVRYRRWSVLKRM  0.839 ± 0.24
43. GKCTGRPPMNHSSLL  0.832 ± 0.39
44. YCRHGGNRASL  0.783 ± 0.53
45. VIYMNAGLYLRLKRRFDYVV  0.72 ± 0.58
46. RSHTTGLPS  0.718 ± 0.15
47. VDRFPVLVPKGWHMRRWCIR  0.669 ± 0.39
48. TFLGLS  0.658 ± 0.26
49. RNIGAR  0.635 ± 0.16
50. LFVKTLGFLAVCASQ  0.609 ± 0.64
51. PHPIDNKRMTTPNIADAPPR  0.56 ± 0.74
52. SVFCRKLTLVAGGDARRDCK  0.497 ± 0.57
53. KRYWSPVFVQNYIDDFKVSD  0.453 ± 0.34
54. NTFWLGFPYSLLQALCHALD  0.447 ± 0.53
55. ANTVHLKMLANSRSPDGTFR  0.441 ± 0.32
56. MVMTYLWARGCCMKLGVQFG  0.396 ± 0.66
57. RMWDSSCSLRGMRLGVYRAR  0.396 ± 0.53
58. LYHEDRSVISRLVSSRLKCK  0.389 ± 0.38
59. HHHLRQVLGESQYLSCLWIK  0.388 ± 0.47
60. MGSNAWVLNNACHGLFTSAS  0.386 ± 0.35
61. WAWVYGCDGYLIGSSRLANG  0.368 ± 0.25
62. YLVELNV  0.344 ± 0.56
63. LSGKT  0.312 ± 0.54
64. GYYAPIPLKCVDSEASLRYR  0.308 ± 0.36
65. AAQIHYSKYNDDVYFSFEEK  0.283 ± 0.37
66. SRAAPDINS  0.251 ± 0.25
67. LNLGREYVGLKD  0.246 ± 0.24
68. NHSMRFVLTMPILWKNQKAG  0.228 ± 1
69. YVKVVFCFDLAAMTSRRFYE  0.228 ± 1
70. VSKNYDHCELRHMECAYWYT  0.211 ± 0.19
71. NLLWLFDV  0.19 ± 1.1
72. RSHPKMMSDICSV  0.178 ± 0.65
73. IYWTNLSRLKTGANRLRDKK  0.177 ± 0.8
74. PSLRSSCCWNFRPP  0.175 ± 0.42
75. YRRQPS  0.174 ± 0.56
76. YSRTQENNAGLSYIACTGRR  0.168 ± 0.56
77. LVFGVLQVCVLCSVTDNLGA  0.159 ± 0.35
78. MGIMPQITLDLNLLYLGKVL  0.14 ± 0.35
79. DLYIS  0.13 ± 0.8
80. LYCRTPFCTMTLELMKMTL  0.128 ± 0.24
81. VPTCN  0.123 ± 0.54
82. SSPKSWNILS  0.106 ± 0.48
83. IVLNVYMRKTKQV  0.078 ± 0.29
84. IVLSGWLSSPSYASWDFCMR  0.07 ± 0.77
85. AWGYDKAVIFGAVDLQHVGT  0.062 ± 0.79
86. SRICIFDDCNRRLARYWGLR  0.057 ± 0.76
87. RTRCYCVYFRLLVHFA  0.057 ± 1.1
88. GQCPIHMCGRNTYMK  0.05 ± 0.32
89. SSLVGFERGRSMGRGMWVDL  0.041 ± 0.63
90. PSSKVL  0.024 ± 0.55
91. SPAWRNGDPRKKATPTHTGI  0.004 ± 1.1
92. GFNSNGTFHFSQSVT  -0.001 ± 0.65
93. VTTNWGSSVRNQAEGYRPSL  -0.067 ± 0.42
94. IDMYRRQYDQSQIKCNFSS  -0.087 ± 0.45
95. KDCYNHSGRTGVVTDQKAQW  -0.118 ± 0.41
96. DVAGKL  -0.151 ± 0.39
97. SRKPNQINNRSRNSMLGARR  -0.162 ± 0.27
98. HISLVSCHEM  -0.213 ± 1.1
99. QFLEFHIP  -0.223 ± 0.49
100. WVKENI  -0.234 ± 0.65
101. SSASTRDEKGGSGALERERC  -0.243 ± 1.1
102. CSTVLRGCVLGQYLYGYSSG  -0.258 ± 0.41
103. WGHFQEDARFTSYGVGSVLG  -0.263 ± 1.1
104. IVSIT  -0.271 ± 0.24
105. CHVCFRETARYMCVGWYYGS  -0.283 ± 0.65
106. PDGAWARLSKSGAEAYLSNF  -0.299 ± 1.1
107. KSHLVF  -0.312 ± 0.65
108. YCKRLKQAMPHY  -0.337 ± 0.63
109. EYRGSVWLAGS  -0.379 ± 0.29
110. PSPVIWPISSPGFQSLCICS  -0.38 ± 0.63
111. EMYFALLVLFVLGGFSM  -0.409 ± 0.76
112. GLRSIGLGVQSFRSYQFSRI  -0.415 ± 0.45
113. LCENWSSLFITMKPYDFSFP  -0.43 ± 1.1
114. TNGCALRSLNWLIVS  -0.44 ± 0.31
115. VNFLWE  -0.447 ± 1.1
116. YYSDVGVYSVRGYLLWS  -0.447 ± 0.61
117. IYCIFRTSKLMNGVMVHSRQ  -0.454 ± 0.37
118. SIFSKYCF  -0.464 ± 0.5
119. SYLVLIHKALSFGRTISDHP  -0.467 ± 0.29
120. CRYRLYYRCEVLEYLSDFTW  -0.492 ± 0.56
121. ERNYVT  -0.525 ± 1.1
122. FPENDWL  -0.552 ± 0.44
123. AFICMFVIRFDWYNMS  -0.558 ± 1
124. SVYPTSGRYYLYRSLIFVGD  -0.57 ± 0.78
125. KIHQRRVTSTANRCTILAAN  -0.572 ± 0.76
126. MNVDGNFWAGVELTYIEGSS  -0.587 ± 0.79
127. CLFSILLVMIPASFYTAMWL  -0.588 ± 1.1
128. NDFWRYV  -0.591 ± 0.24
129. IGSRVVYISRVLLKNWTLVT  -0.592 ± 0.76
130. MGRTMILRSLDQMMVITVGL  -0.598 ± 0.36
131. ILLMNVNGILSIRVQRRKRV  -0.623 ± 0.79
132. HDMRHYKGSPYYLNYWYGDG  -0.623 ± 0.55
133. MGCLTVVRNLEFNRVCGRGD  -0.669 ± 0.49
134. WIIIFSKFV  -0.695 ± 0.79
135. AGFWEDEVFRV  -0.714 ± 0.48
136. GGELP  -0.719 ± 0.79
137. LCHKATSSFYPW  -0.808 ± 0.45
138. VNLSTGSRDLRGYWTTPIFQ  -0.815 ± 0.54
139. ILGCWELSHM  -0.849 ± 1.1
140. CLSNL  -0.864 ± 0.48
141. PKNLILLSHFYSEAVCPGAR  -0.927 ± 1.1
142. RKPLLHLVRFRWNNPLDNE  -1.03 ± 0.76
143. KLYMCVIFYCLKGRLLVTYM  -1.18 ± 0.63
144. CSYFMGLIVILRVKCRYMLK  -1.18 ± 0.32
145. FYSTLFHFPYLVDQMYGPTI  -1.29 ± 1
146. RKTLVGDNLNEGVKSWGWSR  -1.29 ± 0.45
147. FARLGLSSQHRRLIVC  -1.31 ± 0.54
148. CGQLSVWYEGMINVSCFLEI  -1.4 ± 0.75
149. LMGIILF  -1.49 ± 0.78
150. CFLMNKVT  -1.5 ± 0.49
151. TFMMLMEHGRIYFLWASPVA  -1.68 ± 1.1
152. TLTYYPFMRYAFTVSLWFLF  -1.83 ± 1.1

For RYALFSARIYSLYWLWFCIF, the amyloid nucleation score was “inactive”.
In the case of SRKTIVGFYGVPGVRYACIW, the amyloid nucleation score is reported as “inactive”.
With LCYMFIFRTWMLLWVQTMKN the amyloid nucleation score was “inactive”.
For YYHCPTSFFYIV, the amyloid nucleation score was “inactive”.
In the case of YVVSQTVRWF, the amyloid nucleation score is reported as “inactive”.
For RLFYYSSFYKDY, the amyloid nucleation score was “inactive”.
For NWDKKKGRDR, the amyloid nucleation score was “inactive”.
In the case of MDLCINNVWWEAKTSSLGLL, the amyloid nucleation score is reported as “inactive”.
For VAVFLNNA, the amyloid nucleation score was “inactive”.
With SFVDMSYRFLVGVRFLVRPS the amyloid nucleation score was “inactive”.
For CRNQMQGWWYVWMVGVCRGS, the amyloid nucleation score was “inactive”.
With SRNFVPVHRCVGGF the amyloid nucleation score was “inactive”.
In the case of RFYRSVNFKLYLVA, the amyloid nucleation score is reported as “inactive”.
With DDVMMILGNNTSYVLFNMPC the amyloid nucleation score was “inactive”.
In the case of KSAIVRYQVGRVALEFFAAG, the amyloid nucleation score is reported as “inactive”.
With SRLNNLRYLYYLTGFRSLMT the amyloid nucleation score was “inactive”.
In the case of FYSFLFFHPIGMFARVYKCF, the amyloid nucleation score is reported as “inactive”.
With FLRENLCTDVGLTHVCCTYT the amyloid nucleation score was “inactive”.
With IFSTPKTLDPVFYCL the amyloid nucleation score was “inactive”.
In the case of DFFMTPGTLGIGTLSNISFY, the amyloid nucleation score is reported as “inactive”.
In the case of WFDYGR, the amyloid nucleation score is reported as “inactive”.
